# B1: CODA283: engineered receptor: Y115E_N379K in SEQ ID NO: 33 (protein)
# chain: MRCSPGGVWLALAASLLHVSLQGEFQRKLYKELVKNYNPLERPVANDSQPLTVYFSLSLLQIMDVDEKNQVLTTNIWLQMSWTDHYLQWNVSEYPGVKTVRFPDGQIWKPDILLENSADERFDATFHTNVLVNSSGHCQYLPPGIFKSSCPMDLKNFPMDVQTCKLKFGSWSYGGWSLDLQMQEADISGYIPNGEWDLVGIPGKRSERFYECCKEPYPDVTFTVTMRRRMGYYLIQMYIPSLLIVILSWISFWINMDAAPARVGLGITTVLTMTTQSSGSRASLPKVSYVKAIDIWMAVCLLFVFSALLEYAAVNFVSRQHKELLRFRRKRRHHKSPMLNLFQEDEAGEGRFNFSAYGMGPACLQAKDGISVKGANNSKTTNPPPAPSKSPEEMRKLFIQRAKKIDKISRIGFPMAFLIFNMFYWIIYKIVRREDVHNQ
# modifications: synthetic sequence of chimeric LGIC
# B2: CODA325: engineered receptor: L131G in SEQ ID NO: 33 (protein)
# chain: MRCSPGGVWLALAASLLHVSLQGEFQRKLYKELVKNYNPLERPVANDSQPLTVYFSLSLLQIMDVDEKNQVLTTNIWLQMSWTDHYLQWNVSEYPGVKTVRFPDGQIWKPDILLYNSADERFDATFHTNVGVNSSGHCQYLPPGIFKSSCPMDLKNFPMDVQTCKLKFGSWSYGGWSLDLQMQEADISGYIPNGEWDLVGIPGKRSERFYECCKEPYPDVTFTVTMRRRMGYYLIQMYIPSLLIVILSWISFWINMDAAPARVGLGITTVLTMTTQSSGSRASLPKVSYVKAIDIWMAVCLLFVFSALLEYAAVNFVSRQHKELLRFRRKRRHHKSPMLNLFQEDEAGEGRFNFSAYGMGPACLQAKDGISVKGANNSNTTNPPPAPSKSPEEMRKLFIQRAKKIDKISRIGFPMAFLIFNMFYWIIYKIVRREDVHNQ
# modifications: synthetic sequence of chimeric LGIC
# System: engineered chimeric receptor SEQ ID NO: 33 and its mutants (human α7-nAChR ligand binding domain / human GlyRα1 ion pore domain) in Lenti-X 293T cells
# Experiment: YFP fluorescence quenching anion reporter plate reader assay (percent quench, EC50)
# Format: cell-based
# Details: for YFP fluorescence quenching using CNL001 (percent quench): receptor named in row; for YFP fluorescence quenching using Facinicline, 30 nM fac: ligand Facinicline 30 nM; for YFP fluorescence quenching using Facinicline, 300 nM fac: ligand Facinicline 300 nM; for YFP fluorescence quenching using Facinicline, 30 uM fac: ligand Facinicline 30 uM; for YFP fluorescence quenching using TC-6987, 1 uM tc6987: ligand TC-6987 1 uM; for YFP fluorescence quenching using TC-6987, 10 uM tc6987: ligand TC-6987 10 uM; for YFP fluorescence quenching using TC-6987, 500 uM tc6987: ligand TC-6987 500 uM; for YFP fluorescence quenching using Varenicline, 3 nM var: ligand Varenicline 3 nM; for YFP fluorescence quenching using Varenicline, 30 nM var: ligand Varenicline 30 nM; for YFP fluorescence quenching using Varenicline, 300 nM var: ligand Varenicline 300 nM; for YFP fluorescence quenching using Varenicline, 500 nM var: ligand Varenicline 500 nM; for YFP fluorescence quenching using Varenicline, 1 uM var: ligand Varenicline 1 uM
# From the text: To screen these mutant LGICs for those having novel response profiles to ligands, an anion reporter assay was developed to assess the function of the LGICs in a high throughput format. In this assay, cells expressing a YFP reporter whose fluorescence is quenched in the presence of anion are transfected with DNA encoding the channel of interest. Upon exposure to ligand, channels that are activated will flux anion, resulting in a dose-dependent quench of the YFP that can be detected on a plate reader. The greater the quench signal (i.e., the more positive the value), the higher the ligand activity on the receptor is.
# Lenti-X 293T cells (LX293T, Clontech) were maintained in DMEM containing 10% FBS and 1% penicillin/streptomycin (Invitrogen). […] Two days before assay, cells were split at a density of 20,000 cells/well in a 96-well tissue culture plate coated with poly-d lysine (Thermo Scientific). The next day, the cells were transiently transfected with 0.1 μg of DNA per well using standard Fugene protocol (Promega). On the day of assay, cells were washed 2 times in 1X extracellular solution (1X ECS: 140 mM NaCl, 5 mM KCl, 1 mM MgCl2, 2 mM CaCl2, 10 mM HEPES, 10 mM glucose, pH 7.2, mOsms 300). After the last wash, 100 μL of 1X ECS was added to the wells and the plate was incubated at 37° C. for 30 min. While incubating the plate, the drugs were diluted to a 2X concentration in 1X ECS-Nal (same components as 1X ECS except the 140 mM NaCl was replaced by 140 mM Nal). The plates were then read on a Flexstation3 (Molecular Devices). Each well, 8 wells at a time, of the plate is read for 2 min using a Flexstation3 (Molecular Devices) as follows: 1) a baseline YFP fluorescence is read for 17 sec, 2) 100 μL of ligand is added, and 3) the changes in YFP fluorescence are then measured every 1.3 sec for 1 minute and 43 seconds. The percent quench is calculated from the average fluorescence of the last 10 seconds of the read divided by the baseline average of the first 15 seconds prior to the ligand addition.
# FIGS. 1A-1J provide heat maps of the percent quench of YFP fluorescence following stimulation by various doses of either acetylcholine or the non-native ligand as indicated in the Figures. CODA71 (SEQ ID NO: 33) was used as a control, and CODA75 (SEQ ID NO: 29, a non-responding chimeric engineered receptor) was used as the negative control. Quenching of the fluorescence signal, as indicated by blue shaded cells, indicate the level of engineered receptor activation by the non-native ligand at that concentration.
# [1] = 1 nM CNL001, first column so headed
# [2] = 1 nM CNL001, second column so headed
# [3] = 3 nM brd (TC-5619/Bradanicline)
# [4] = 10 nM CNL001, first column so headed
# [5] = 10 nM CNL001, second column so headed
# [6] = 30 nM brd (TC-5619/Bradanicline)
# [7] = 50 nM CNL001, first column so headed
# [8] = 50 nM CNL001, second column so headed
# [9] = 100 nM CNL001, first column so headed
# [10] = 100 nM CNL001, second column so headed
# [11] = 300 nM brd (TC-5619/Bradanicline)
# [12] = 1 uM CNL001, first column so headed
# [13] = 1 uM CNL001, second column so headed
molecule,measurement,setting,value
B1,YFP fluorescence quenching using CNL001 (percent quench),[1],−0.713%
same,YFP fluorescence quenching using CNL001 (percent quench),[2],−0.621%
same,YFP fluorescence quenching using TC-5619/Bradanicline (percent quench),1 nM brd (TC-5619/Bradanicline),0.59%
same,YFP fluorescence quenching using TC-5619/Bradanicline (percent quench),[3],−6.41%
same,YFP fluorescence quenching using CNL001 (percent quench),[4],7.739%
same,YFP fluorescence quenching using CNL001 (percent quench),[5],15.277%
same,YFP fluorescence quenching using TC-5619/Bradanicline (percent quench),10 nM brd (TC-5619/Bradanicline),−1.58%
same,YFP fluorescence quenching using TC-5619/Bradanicline (percent quench),[6],−14.24%
same,YFP fluorescence quenching using CNL001 (percent quench),[7],19.489%
same,YFP fluorescence quenching using CNL001 (percent quench),[8],33.703%
same,YFP fluorescence quenching using ABT-126 (percent quench),50 nM abt (ABT-126),−22.65%
same,YFP fluorescence quenching using CNL001 (percent quench),[9],56.886%
same,YFP fluorescence quenching using CNL001 (percent quench),[10],60.171%
same,YFP fluorescence quenching (percent quench),100 nM CNL002,−5.81%
same,YFP fluorescence quenching using ABT-126 (percent quench),100 nM abt (ABT-126),−20.55%
same,YFP fluorescence quenching using AZD-0328 (percent quench),100 nM azd0328,−2.1%
same,YFP fluorescence quenching using TC-5619/Bradanicline (percent quench),100 nM brd (TC-5619/Bradanicline),33.36%
same,YFP fluorescence quenching using ABT-126 (percent quench),300 nM abt (ABT-126),−12.93%
same,YFP fluorescence quenching using AZD-0328 (percent quench),300 nM azd0328,38.2%
same,YFP fluorescence quenching using TC-5619/Bradanicline (percent quench),[11],43.81%
same,YFP fluorescence quenching using CNL001 (percent quench),[12],69.836%
same,YFP fluorescence quenching using CNL001 (percent quench),[13],73.855%
same,YFP fluorescence quenching (percent quench),1 uM CNL002,9.69%
same,YFP fluorescence quenching using ABT-126 (percent quench),1 uM abt (ABT-126),1.71%
same,YFP fluorescence quenching using TC-5619/Bradanicline (percent quench),1 uM brd (TC-5619/Bradanicline),75.39%
same,YFP fluorescence quenching (percent quench),10 uM ach (acetylcholine),−6.16%
same,YFP fluorescence quenching (percent quench),30 uM CNL002,−12.85%
same,YFP fluorescence quenching using AZD-0328 (percent quench),30 uM azd0328,79.44%
same,YFP fluorescence quenching (percent quench),100 uM ach (acetylcholine),−11.12%
same,YFP fluorescence quenching (percent quench),1 mM ach (acetylcholine),−2.74%
same,YFP fluorescence quenching (percent quench),3 mM ach (acetylcholine),53.61%
same,"YFP fluorescence quenching using Facinicline, 30 nM fac",,6.39
same,"YFP fluorescence quenching using Facinicline, 300 nM fac",,78.36
same,"YFP fluorescence quenching using Facinicline, 10 uM fac",ligand Facinicline 10 uM,81.93
same,"YFP fluorescence quenching using Facinicline, 30 uM fac",,78.63
same,"YFP fluorescence quenching using TC-6987, 1 uM tc6987",,−9.54
same,"YFP fluorescence quenching using TC-6987, 10 uM tc6987",,−7.06
same,"YFP fluorescence quenching using TC-6987, 500 uM tc6987",,−15.15
B2,YFP fluorescence quenching using CNL001 (percent quench),[1],74.429%
same,YFP fluorescence quenching using CNL001 (percent quench),[2],78.715%
same,YFP fluorescence quenching using TC-5619/Bradanicline (percent quench),[3],68.45%
same,YFP fluorescence quenching using CNL001 (percent quench),[4],79.033%
same,YFP fluorescence quenching using CNL001 (percent quench),[5],79.322%
same,YFP fluorescence quenching using TC-6683 (percent quench),30 nM TC-6683,−21.27%
same,YFP fluorescence quenching using TC-5619/Bradanicline (percent quench),[6],76.95%
same,YFP fluorescence quenching using CNL001 (percent quench),[7],79.966%
same,YFP fluorescence quenching using CNL001 (percent quench),[8],80.091%
same,YFP fluorescence quenching using ABT-126 (percent quench),50 nM abt (ABT-126),−17.39%
same,YFP fluorescence quenching using CNL001 (percent quench),[9],81%
same,YFP fluorescence quenching using CNL001 (percent quench),[10],79.701%
same,YFP fluorescence quenching (percent quench),100 nM CNL002,45.62%
same,YFP fluorescence quenching using ABT-126 (percent quench),100 nM abt (ABT-126),6.89%
same,YFP fluorescence quenching using AZD-0328 (percent quench),100 nM azd0328,79.75%
same,YFP fluorescence quenching using TC-6683 (percent quench),300 nM TC-6683,−18.33%
same,YFP fluorescence quenching using ABT-126 (percent quench),300 nM abt (ABT-126),38.65%
same,YFP fluorescence quenching using AZD-0328 (percent quench),300 nM azd0328,80.62%
same,YFP fluorescence quenching using TC-5619/Bradanicline (percent quench),[11],77.1%
same,YFP fluorescence quenching using CNL001 (percent quench),[12],79.289%
same,YFP fluorescence quenching using CNL001 (percent quench),[13],80.581%
same,YFP fluorescence quenching (percent quench),1 uM CNL002,74.72%
same,YFP fluorescence quenching using ABT-126 (percent quench),1 uM abt (ABT-126),45.82%
same,YFP fluorescence quenching using TC-6683 (percent quench),3 uM TC-6683,−7.03%
same,YFP fluorescence quenching (percent quench),10 uM ach (acetylcholine),5.66%
same,YFP fluorescence quenching (percent quench),30 uM CNL002,77.4%
same,YFP fluorescence quenching using TC-6683 (percent quench),30 uM TC-6683,56.84%
same,YFP fluorescence quenching using AZD-0328 (percent quench),30 uM azd0328,80.19%
same,YFP fluorescence quenching using TC-6683 (percent quench),100 uM TC-6683,64.51%
same,YFP fluorescence quenching (percent quench),100 uM ach (acetylcholine),74.07%
same,YFP fluorescence quenching (percent quench),1 mM ach (acetylcholine),62.65%
same,YFP fluorescence quenching (percent quench),3 mM ach (acetylcholine),69.49%
same,"YFP fluorescence quenching using Facinicline, 30 nM fac",,75.75
same,"YFP fluorescence quenching using Facinicline, 300 nM fac",,78.01
same,"YFP fluorescence quenching using Facinicline, 30 uM fac",,76.61
same,"YFP fluorescence quenching using TC-6987, 1 uM tc6987",,64.59
same,"YFP fluorescence quenching using TC-6987, 10 uM tc6987",,76.28
same,"YFP fluorescence quenching using TC-6987, 500 uM tc6987",,70.95
same,"YFP fluorescence quenching using Varenicline, 3 nM var",first column,−12.241
same,"YFP fluorescence quenching using Varenicline, 3 nM var",second column,−9.415
same,"YFP fluorescence quenching using Varenicline, 30 nM var",first column,75.334
same,"YFP fluorescence quenching using Varenicline, 30 nM var",second column,72.278
same,"YFP fluorescence quenching using Varenicline, 300 nM var",first column,78.305
same,"YFP fluorescence quenching using Varenicline, 300 nM var",second column,77.83
same,"YFP fluorescence quenching using Varenicline, 500 nM var",first column,75.936
same,"YFP fluorescence quenching using Varenicline, 500 nM var",second column,76.788
same,"YFP fluorescence quenching using Varenicline, 1 uM var",first column,77.805
same,"YFP fluorescence quenching using Varenicline, 1 uM var",second column,77.352
